Source: paper PMC11697113, “The Hsc70 system maintains the synaptic SNARE protein SNAP-25 in an assembly-competent state and delays its aggregation [drawing 1]” (The Journal of Biological Chemistry, 2024)

Assays:
[1] = biological target: T1, Hsc70 (Homo sapiens, UniProt P11142); assay: ATPase activity of Hsc70 (malachite green); type: biochemical; details: for ATPase activity of co-chaperone alone: baseline, protein alone without Hsc70
T1 construct: 6X His-tag (TEV-cleavable) (cleaved yes); made in house; host or cells: E. coli Rosetta (DE3)
Description: Hsp70s consist of an nucleotide-binding domain (NBD) and a substrate-binding domain (SBD). Hsc70 works using an allosteric mechanism whereby substrate binding at the SBD stimulates the ATP hydrolysis rate at the nucleotide-binding domain. The basal ATPase rate of Hsp70 is low, usually about 0.05 ± 0.009 mol Pi/mol protein, and increases when it is stimulated by binding of a peptide to the canonical site in the SBD. We measured the ability of SNAP-25 peptides SNNP and SNCP to stimulate the ATPase rate of Hsc70 (Fig. 5A). SNNP and SNCP binding cause a 1.5-fold increase of the Hsc70 ATPase rate over basal (observed rates upon addition of SNNP and SNCP were 0.089 ± 0.008 and 0.080 ± 0.005, respectively). In order to confirm that peptides are indeed binding at the canonical binding site of Hsc70, we used the V438F mutant that blocks the binding site ([37]). […] The addition of CSPαJ stimulates the ATPase activity of Hsc70 ∼4-fold with and without peptides.
Figure 5 SNN and SNC peptides interact with the canonical substrate-binding site of Hsc70.A, ATPase activity of Hsc70 (2 μM) in the absence (gray) and presence of 200 μM SNNP (orange) and SNCP (green) peptides. Error bars represent the SDs from three independent experiments. B, binding of SNAP-25 (black), SNNP (orange), LoopP (blue), and SNCP (green) peptides to Hsc70 followed by competition for FITC-p5 peptide using fluorescence anisotropy. Increasing concentrations of the competitors were added to a complex of Hsc70 (5 μM) and FITC-p5 peptide (50 nM). Error bars represent SDs from three independent experiments. C, structure of the canonical substrate-binding site of human HspA1 (PDB 4po2) illustrating the location of Hsc70 residues Ile 403 and Ile 440 in red and green spheres, respectively (N.B., Hsc70 and HspA1 share […] sequence identity). The SBD is shown in gray, bound substrate in cyan sticks, and the side chain of the residue occupying the 0th position in the chaperone (“anchor residue”) in orange ball and sticks. For better visualization of the substrate-binding site, residues 512 to 613, 405 to 408, and 431 were removed in this illustration of the structure. […]
We performed ATPase assays to observe the activity of Hsc70 in the presence of SNAP25 peptides. […] Absorbance readings were taken at 620 nm using a BioTek plate reader. […]
(C) ATPase activity of Hsc70 (at 2 μM) in the absence (grey) and presence of 200 μM SNNP (orange) and L(Loop)-SNCP (green) peptides, and in the absence and presence of CSPa-J and CSPa-J/Apg2. The statistical significance was calculated using one-way ANOVA test with Sidak’s multiple comparison and the Hsc70 ATPase activity […]

[2] = system: SNAP-25; assay: SNAP-25 aggregation kinetics by optical density; type: biochemical; details: SNAP-25 50 μM
Description: (§1) To test our hypothesis that Hsc70 inhibits SNAP-25 aggregation, we monitored the aggregation kinetics of recombinantly expressed SNAP-25 in the absence and presence of Hsc70 by following optical density at 360 nm (Fig. 2). […] This lag time was elongated to ∼65 h in the presence of Hsc70. In neurons, Hsc70 works in collaboration with its co-chaperone CSPα. […] (Fig. S2A). Apg2 is a member of the Hsp110 family, which is known to suppress protein aggregation ([36]). […] (Fig. S2B).
(§2) Figure 2 Hsc70 delays the aggregation of SNAP-25. Aggregation kinetics of SNAP-25 (50 μM) at 37 °C. Optical density of SNAP-25 was recorded at 360 nm in the absence (black) and in the presence of Hsc70 (5 μM, red), and Hsc70+CSPαJ (5 μM each, blue).
(§3) Aggregation of SNAP-25 at 50 μM was followed by measuring the A360 in a 96-well plate using a BioTek plate reader (BioTek), at 37 °C with shaking at 300 rpm, in the absence and presence of Hsc70 and CSPαJ at 5 μM each, and Apg2 at 0.5 μM. The aggregation buffer included 20 mM phosphate buffer pH 7.4, 100 μM MgCl2, and 100 mM KCl, and an ATP-experiment was carried out using regeneration system (5 mM 2-phosphoenolpyruvate, 0.05 mg/ml pyruvate kinase, and 5 mM ATP), as described previously ([51]).
(§4) Figure SI 2. Apg2 enhances the effect of Hsc70 on SNAP-25. (A) Aggregation kinetics of SNAP-25 (50 μM) at 37 °C. OD600 of SNAP-25 was recorded in the absence (black) and in the presence of Hsc70, Hsc70+CSPa-J (blue) and Hsc70+CSPa-J+Apg2 (turquoise). […]
(§5) concentrations are SNAP-25 (50 μM), Hsc70 (5 μM), CSPa-J (5 μM) and Apg2 (0.5 μM).
(§6) (B) Aggregation kinetics of SNAP-25 (50 μM) at 37 °C. OD600 of SNAP-25 was recorded in the absence (black) and in the presence of Apg2 (blue). […]

[3] = SNAP-25 aggregation kinetics by optical density; type: biochemical; details: without SNAP-25, 37 °C
Description: as §1, §2, §3, §4, §5, §6

[4] = biological target: T1, Hsc70; assay: SNAP-25 cellulose-bound peptide array probed with Hsc70; type: binding; details: Hsc70 with CSPαJ vs Hsc70 alone
Description: To explore in greater depth the binding sites for Hsc70 in SNAP-25, we screened a cellulose-bound peptide array spanning the full SNAP-25 sequence with 13-residue long peptides, overlapping by ten residues, and probed with Hsc70 in the presence of a two-fold excess of ATP and ten-fold excess of ADP. The binding of Hsc70 to sites in the array was then visualized with an anti-Hsc70 primary antibody and a horse radish peroxidase-tagged secondary antibody to enable visualization by chemiluminescence (Fig. 4A). To quantitatively analyze the array, we used ImageJ (https://imagej.net/ij/) and plotted the intensity under the area for each spot. […] One site is located in the SNN, one in the LOOP, and one in the LOOP-SNC region (called SNC site) (Fig. 4A) […] (Fig. 1C). […] The binding site in the LOOP region is very close to the cysteine residues that become palmitoylated as SNAP-25 moves to its membrane-localized state. It is formally possible that Hsc70 binds to SNAP-25 in the initial un-palmitoylated state and dissociates upon palmitoylation and association with the plasma membrane. […]
B, quantification of the spots from Figure 4A using ImageJ (Hsc70 (gray) and Hsc70-CSPαJ (dark gray)). […]
A peptide array of SNAP-25 was obtained from CEM corporation. […] The chemiluminescence was captured in a G-box (Syngene), and the images were analyzed using ImageJ.

[5] = OD600 (Fig. S2A), Hsc70 5 μM, CSPa-J 5 μM, Apg2 0.5 μM

T1 sequence (P11142 whole entry): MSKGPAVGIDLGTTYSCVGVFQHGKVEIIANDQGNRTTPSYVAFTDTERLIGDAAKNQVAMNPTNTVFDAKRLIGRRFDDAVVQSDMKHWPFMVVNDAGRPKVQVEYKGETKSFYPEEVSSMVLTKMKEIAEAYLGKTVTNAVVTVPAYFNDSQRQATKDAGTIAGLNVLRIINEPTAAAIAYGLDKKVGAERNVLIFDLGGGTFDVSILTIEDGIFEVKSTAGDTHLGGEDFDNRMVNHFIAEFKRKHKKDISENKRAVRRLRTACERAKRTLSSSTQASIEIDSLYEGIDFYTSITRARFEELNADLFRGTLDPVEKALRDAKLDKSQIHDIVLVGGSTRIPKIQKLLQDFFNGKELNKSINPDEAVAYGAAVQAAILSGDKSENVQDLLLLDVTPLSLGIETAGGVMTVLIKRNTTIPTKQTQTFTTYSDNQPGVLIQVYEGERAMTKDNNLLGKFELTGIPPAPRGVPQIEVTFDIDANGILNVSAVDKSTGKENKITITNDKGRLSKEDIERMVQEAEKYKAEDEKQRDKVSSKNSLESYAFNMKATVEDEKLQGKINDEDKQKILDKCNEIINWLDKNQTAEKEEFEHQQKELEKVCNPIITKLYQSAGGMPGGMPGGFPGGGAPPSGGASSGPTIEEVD

B1: Apg2: nucleotide exchange factor, member of the Hsp110 family (protein, UniProt P34932 1-840, looked up)
Heat shock 70 kDa protein 4: MSVVGIDLGFQSCYVAVARAGGIETIANEYSDRCTPACISFGPKNRSIGAAAKSQVISNAKNTVQGFKRFHGRAFSDPFVEAEKSNLAYDIVQLPTGLTGIKVTYMEEERNFTTEQVTAMLLSKLKETAESVLKKPVVDCVVSVPCFYTDAERRSVMDATQIAGLNCLRLMNETTAVALAYGIYKQDLPALEEKPRNVVFVDMGHSAYQVSVCAFNRGKLKVLATAFDTTLGGRKFDEVLVNHFCEEFGKKYKLDIKSKIRALLRLSQECEKLKKLMSANASDLPLSIECFMNDVDVSGTMNRGKFLEMCNDLLARVEPPLRSVLEQTKLKKEDIYAVEIVGGATRIPAVKEKISKFFGKELSTTLNADEAVTRGCALQCAILSPAFKVREFSITDVVPYPISLRWNSPAEEGSSDCEVFSKNHAAPFSKVLTFYRKEPFTLEAYYSSPQDLPYPDPAIAQFSVQKVTPQSDGSSSKVKVKVRVNVHGIFSVSSASLVEVHKSEENEEPMETDQNAKEEEKMQVDQEEPHVEEQQQQTPAENKAESEEMETSQAGSKDKKMDQPPQAKKAKVKTSTVDLPIENQLLWQIDREMLNLYIENEGKMIMQDKLEKERNDAKNAVEEYVYEMRDKLSGEYEKFVSEDDRNSFTLKLEDTENWLYEDGEDQPKQVYVDKLAELKNLGQPIKIRFQESEERPKLFEELGKQIQQYMKIISSFKNKEDQYDHLDAADMTKVEKSTNEAMEWMNNKLNLQNKQSLTMDPVVKSKEIEAKIKELTSTCSPIISKPKPKVEPPKEEQKNAEQNGPVDGQGDNPGPQAAEQGTDTAVPSDSDKKLPEMDID
- effect of Apg2 on Hsc70 ATPase activity ([1]; Hsc70 2 μM with CSPαJ, with Apg2 (Fig. S2C)): not further increased
- ATPase activity of co-chaperone alone [1]: no ATPase activity
- effect of Apg2 alone on SNAP-25 aggregation ([2]; Apg2 without Hsc70/CSPαJ, 37 °C (Fig. S2B)): no significant effect
- effect of Apg2 on SNAP-25 aggregation kinetics with Hsc70-CSPαJ ([2]; Hsc70 5 μM, CSPαJ 5 μM, Apg2 0.5 μM, 37 °C (Fig. S2A)): further elongated
- aggregation of the chaperone alone [3, 5]: exhibit no aggregation

B2: CSPαJ: J-domain (residues 1–100) of human CSPα (protein, UniProt Q9H3Z4 1-100, looked up, fragment)
chain: MADQRQRSLSTSGESLYHVLGLDKNATSDDIKKSYRKLALKYHPDKNPDNPEAADKFKEINNAHAILTDATKRNIYDKYGSLGLYVAEQFGEENVNTYFV
modifications: J-domain
notes: J-domain (residues 1–100) of human CSPα
- effect of CSPαJ on specificity of Hsc70 binding to SNAP-25 array [4]: does not change the specificity of Hsc70 binding to SNAP-25
- stimulation of Hsc70 ATPase activity by CSPαJ ([1]; Hsc70 2 μM, with and without peptides): ~4 fold
- ATPase activity of co-chaperone alone [1]: no ATPase activity
- effect of CSPαJ on lag time of SNAP-25 aggregation with Hsc70 ([2]; Hsc70 and CSPαJ 5 μM each, 37 °C, OD 360 nm): elongates the lag time of SNAP-25 aggregation
- aggregation of the chaperone alone ([3]; OD 360 nm (Fig. 2)): no aggregation
- aggregation of the chaperone alone [3, 5]: exhibit no aggregation
